Experimental findings from publication PMC10148881, “Recognition of an Ala-rich C-degron by the E3 ligase Pirh2” (Nature Communications, 2023) are described below.

One may read the Kd as the equilibrium constant for the complex coming apart. A lower Kd goes with tighter binding.

The target in this experiment is Ala6/C-degron peptide (sequence: …). As to the kind of experiment: ITC.

As to WT Pirh2 I110D, the dissociation constant (Kd) was 40 µM.
